Where no end group is shown, it is not given here.
Columns and labels:
HCV core peptide 25 = target: T1, HCV core peptide 25 (hepatitis C virus, N-terminal biotin; C-terminal amide); assay: peptide EIA, 2 ug/mL IgG;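 further: purified mouse IgG binding to individually well-coated synthetic peptides, detected with peroxidase anti-mouse IgG Fc and o-phenylenediamine, IgG incubated at least 1 h at room temperature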
T1 construct: range 49-63
Procedure: (§1) The coated plates were kept dry in a sealed foil pouch and stored at <10 degrees C. until ready for use. A peptide coated plate for each test antibody was blocked using 3% BSA in PBS with 0.5% Tween 20. The blocked plates were washed with distilled water and a 2 ug/mL solution of purified IgG from each test sample diluted in BSA block solution was added to each peptide coated well of the blocked plate and allowed to incubate at room temperature for at least one hour. Following incubation the plates were washed with distilled water. A 200 ng/mL solution of peroxidase labeled F(ab′)2 fragment goat anti-mouse IgG Fc fragment specific (Jackson Immunoresearch) in BSA block solution was added to all wells and incubated at room temperature for 30 minutes. The plates were washed with distilled water and o-phenylenediamine substrate was used as the chromagen to generate signal. Plates were read at 492 nm and the results were analyzed.

HCV core peptide 5 = target: T2, HCV core peptide 5 (hepatitis C virus, N-terminal biotin; C-terminal amide); assay: peptide EIA, 2 ug/mL IgG;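 further: purified mouse IgG binding to individually well-coated synthetic peptides, detected with peroxidase anti-mouse IgG Fc and o-phenylenediamine, IgG incubated at least 1 h at room temperature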
T2 construct: range 9-23
Procedure: as §1

HCV core peptide 86 = HCV core peptide 86 (hepatitis C virus, N-terminal biotin; C-terminal amide); assay: peptide EIA, 2 ug/mL IgG;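 further: purified mouse IgG binding to individually well-coated synthetic peptides, detected with peroxidase anti-mouse IgG Fc and o-phenylenediamine, IgG incubated at least 1 h at room temperature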
Procedure: as §1

HCV core peptide 47 = HCV core peptide 47 (hepatitis C virus, N-terminal biotin; C-terminal amide); assay: peptide EIA, 2 ug/mL IgG;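 further: purified mouse IgG binding to individually well-coated synthetic peptides, detected with peroxidase anti-mouse IgG Fc and o-phenylenediamine, IgG incubated at least 1 h at room temperature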
Procedure: as §1

HCV core peptide 29 = target: T3, HCV core peptide 29 (hepatitis C virus, N-terminal biotin; C-terminal amide); assay: peptide EIA, 2 ug/mL IgG
T3 construct: range 57-71
Procedure: as §1

HCV core peptide 69 = HCV core peptide 69 (hepatitis C virus, N-terminal biotin; C-terminal amide); assay: peptide EIA, 2 ug/mL IgG
Procedure: as §1

HCV core peptide 66 = HCV core peptide 66 (hepatitis C virus, N-terminal biotin; C-terminal amide); assay: peptide EIA, 2 ug/mL IgG
Procedure: as §1

HCV core peptide 60 = HCV core peptide 60 (hepatitis C virus, N-terminal biotin; C-terminal amide); assay: peptide EIA, 2 ug/mL IgG
Procedure: as §1

HCV core peptide 1 = target: T4, HCV core peptide 1 (hepatitis C virus, N-terminal biotin; C-terminal amide); assay: peptide EIA, 2 ug/mL IgG
T4 construct: range 1-15
Procedure: as §1

HCV core peptide 30 = target: T5, HCV core peptide 30 (hepatitis C virus, N-terminal biotin; C-terminal amide); assay: peptide EIA, 2 ug/mL IgG
T5 construct: range 59-73
Procedure: as §1

HCV core peptide 26 = target: T6, HCV core peptide 26 (hepatitis C virus, N-terminal biotin; C-terminal amide); assay: peptide EIA, 2 ug/mL IgG
T6 construct: range 51-65
Procedure: as §1

HCV core peptide 18 = target: T7, HCV core peptide 18 (hepatitis C virus, N-terminal biotin; C-terminal amide); assay: peptide EIA, 2 ug/mL IgG
T7 construct: range 35-49
Procedure: as §1

HCV core peptide 65 = HCV core peptide 65 (hepatitis C virus, N-terminal biotin; C-terminal amide); assay: peptide EIA, 2 ug/mL IgG
Procedure: as §1

HCV core peptide 85 = HCV core peptide 85 (hepatitis C virus, N-terminal biotin; C-terminal amide); assay: peptide EIA, 2 ug/mL IgG
Procedure: as §1

HCV core peptide 73 = HCV core peptide 73 (hepatitis C virus, N-terminal biotin; C-terminal amide); assay: peptide EIA, 2 ug/mL IgG
Procedure: as §1

HCV core peptide 3 = target: T8, HCV core peptide 3 (hepatitis C virus, N-terminal biotin; C-terminal amide); assay: peptide EIA, 2 ug/mL IgG
T8 construct: range 5-19
Procedure: as §1

HCV core peptide 39 = target: T9, HCV core peptide 39 (hepatitis C virus, N-terminal biotin; C-terminal amide); assay: peptide EIA, 2 ug/mL IgG
T9 construct: range 77-91
Procedure: as §1

HCV core peptide 72 = target: T10, HCV core peptide 72 (hepatitis C virus, N-terminal biotin; C-terminal amide); assay: peptide EIA, 2 ug/mL IgG
T10 construct: range 143-157
Procedure: as §1

HCV core peptide 82 = target: T11, HCV core peptide 82 (hepatitis C virus, N-terminal biotin; C-terminal amide); assay: peptide EIA, 2 ug/mL IgG
T11 construct: range 163-177
Procedure: as §1

HCV core peptide 43 = target: T12, HCV core peptide 43 (hepatitis C virus, N-terminal biotin; C-terminal amide); assay: peptide EIA, 2 ug/mL IgG
T12 construct: range 85-99
Procedure: as §1

HCV core peptide 63 = HCV core peptide 63 (hepatitis C virus, N-terminal biotin; C-terminal amide); assay: peptide EIA, 2 ug/mL IgG
Procedure: as §1

HCV core peptide 20 = target: T13, HCV core peptide 20 (hepatitis C virus, N-terminal biotin; C-terminal amide); assay: peptide EIA, 2 ug/mL IgG
T13 construct: range 39-53
Procedure: as §1

HCV core peptide 84 = HCV core peptide 84 (hepatitis C virus, N-terminal biotin; C-terminal amide); assay: peptide EIA, 2 ug/mL IgG
Procedure: as §1

HCV core peptide 54 [1] = target: T14, HCV core peptide 54 (hepatitis C virus, HELM PEPTIDE1{[O=C1N[C@H]2[C@H](CS[C@H]2CCCCC(=O)[*:2])N1].S.G.S.G.W.G.P.T.D.P.R.R.R.S.R.N.L.G.K.[am]}$$$$V2.0; SMILES …); assay: peptide EIA, 2 ug/mL IgG
T14 peptide: SGSGWGPTDPRRRSRNLGK
Procedure: as §1

HCV core peptide 49 [2] = target: T15, HCV core peptide 49 (hepatitis C virus, HELM PEPTIDE1{[O=C1N[C@H]2[C@H](CS[C@H]2CCCCC(=O)[*:2])N1].S.G.S.G.L.L.S.P.R.G.S.R.P.S.W.G.P.T.D.[am]}$$$$V2.0; SMILES …); assay: peptide EIA, 2 ug/mL IgG (summary table)
T15 peptide: SGSGLLSPRGSRPSWGPTD
Procedure: as §1

HCV core peptide 54 [3] = target: T14, HCV core peptide 54; assay: peptide EIA, 2 ug/mL IgG (summary table)
Procedure: as §1

HCV core peptide 48 = target: T16, HCV core peptide 48 (hepatitis C virus, HELM PEPTIDE1{[O=C1N[C@H]2[C@H](CS[C@H]2CCCCC(=O)[*:2])N1].S.G.S.G.G.W.L.L.S.P.R.G.S.R.P.S.W.G.P.[am]}$$$$V2.0; SMILES …); assay: peptide EIA
T16 construct: also called aa 95-109
T16 peptide: SGSGGWLLSPRGSRPSWGP

HCV core peptide 49 [4] = target: T15, HCV core peptide 49; assay: peptide EIA
[5] = target: T17, C113WT biotin labeled HCV core peptide (hepatitis C virus, also: biotin labeled, position not given here); assay: capture EIA with biotin peptide
T17 peptide: RGSRPSWGPTD

[6] = target: T18, C113T109N biotin labeled HCV core peptide (hepatitis C virus, also: biotin labeled, position not given here); assay: capture EIA with biotin peptide
T18 construct: also called C113T110N
T18 peptide: RGSRPSWGPND

B1: Neo4 mouse monoclonal antibody (antibody, V domains shown)
VH: QIQLKESGPAVIKPSQSLSLTCIVSGFSITSSVYCWQWIRQPPGKGLEWMGRICYDGSVDYSPSITSRGTISRDTSLNKVFFQLSSVTNEDTAMYYCSRENHIDYYDTTYPSFDVWGAGTTVTVSS
VL: DIVLTQSPASLIVSLGQRATISCRASKSVNEYGYTYMHWYQQKPGLPPKLLIYLASNLDSGVPARFSGSGSGTDFTLNIHPVEEEDAATYYCQHSRELPYTFGGGTKLEIKR
notes: Mouse hybridoma antibody, isotype IgG1, purified with Protein G; also called HCV Neo4
- OD (A492 nm) (HCV core peptide 25): 0.04 OD
- OD (A492 nm) (HCV core peptide 5): 0.05 OD
- OD (A492 nm) (HCV core peptide 86): 0.05 OD
- OD (A492 nm) (HCV core peptide 47): 0.05 OD
- OD (A492 nm) (HCV core peptide 29): 0.04 OD
- OD (A492 nm) (HCV core peptide 69): 0.05 OD
- OD (A492 nm) (HCV core peptide 66): 0.05 OD
- OD (A492 nm) (HCV core peptide 60): 0.06 OD
- OD (A492 nm) (HCV core peptide 1): 0.06 OD
- OD (A492 nm) (HCV core peptide 30): 0.05 OD
- OD (A492 nm) (HCV core peptide 26): 0.04 OD
- OD (A492 nm) (HCV core peptide 18): 0.05 OD
- OD (A492 nm) (HCV core peptide 65): 0.04 OD
- OD (A492 nm) (HCV core peptide 85): 0.05 OD
- OD (A492 nm) (HCV core peptide 73): 0.04 OD
- OD (A492 nm) (HCV core peptide 3): 0.05 OD
- OD (A492 nm) (HCV core peptide 39): 0.05 OD
- OD (A492 nm) (HCV core peptide 72): 0.04 OD
- OD (A492 nm) (HCV core peptide 82): 0.04 OD
- OD (A492 nm) (HCV core peptide 43): 0.05 OD
- OD (A492 nm) (HCV core peptide 63): 0.04 OD
- OD (A492 nm) (HCV core peptide 20): 0.05 OD
- OD (A492 nm) (HCV core peptide 84): 0.05 OD
- OD (A492 nm) (HCV core peptide 54 [1]): 1.01 OD
- OD (A492 nm) (HCV core peptide 49 [2]): 0.05 OD
- OD (A492 nm) (HCV core peptide 54 [3]): 1.01 OD
- binding result (HCV core peptide 48): no binding
- binding result (HCV core peptide 49 [4]): no binding
- binding result [5]: no binding
- binding result [6]: no binding
